Like-named read-outs stand apart in the source and are kept apart here.
Assays:
[1] = Membrane off-binding rate (koff) of FtsA from FRAP
Source text: We could also use the data from these bleaching experiments to quantify the membrane-binding kinetics and diffusion of membrane-bound proteins by analysing the change of the fluorescence profile during recovery.
Equimolar concentrations of Cy3- and Cy5-labelled FtsA, supplemented with 20% unlabelled FtsA were used to study FRET and FRAP. Five pre-bleach frames were acquired, followed by acceptor photobleaching of a rectangular ROI with 40% 641 nm laser power and a dwell size of 1 µs/pixel, 75% overlapping lines. The recovery of the signal or the increase in donor intensity were measured with either two frames or one frame per second.
Bleaching the acceptor dye leads to an increase in the donor intensity, which can be used to quantify the Foerster Resonance energy transfer (FRET)[48]. FRET efficiency was quantified with E%=Ipost/Ipost+Ipre⋅100 , where Ipost is the intensity of the […] and Ipre is the […]. […] To extract the contribution of both processes, we adjusted a routine recently published by Gerganova et al.[33]. In short, the code provides the contribution of both modes of recovery by analysing the shape of the fluorescence recovery profile. […] Contribution of diffusion leads to a change of the slope of the outer borders of the bleached region (S4h right). Thus, by measuring the change of the slope of the border recovery, diffusion and simple on/off binding can be distinguished. We developed “FRAPdiff”, a graphical user interface, which uses the original fit routine by David Rutkowski. It can be used directly on.tiff movies with annotated bleach regions as ImageJ ROIs. In addition, we added optional bleach correction, user selectable projection axis (x or y), and optional mirroring of the recovery profiles, if bleaching was not symmetric. The original fit routine for estimating the recovery and diffusion dynamics can be found at https://github.com/davidmrutkowski/1DReflectingDiffusion. FRAPdiff is available at 10.5281/zenodo.6400639[49] under the GPLv3 open-source license.

FtsZ [2] = settings: His-tagged FtsA
Protocol: (§1) Co-treadmilling of FtsA with FtsZ relies on the dynamic exchange of FtsA on the membrane. […] To investigate the respective contributions of membrane binding kinetics and FtsA self-interaction on the colocalization dynamics with FtsZ, we wanted to create variants of the two FtsA proteins that are permanently attached to the membrane. […] Accordingly, in these experiments the proteins only differ in their tendency to form oligomers.
(§2) To study colocalization of His-tagged variants of FtsA, 0.5–1 µM of Cy5 labelled His-tagged FtsAs were added to the chamber, incubated for 20 min and washed 6x with reaction buffer. […] To control the density of membrane-bound FtsA, SUVs without and with Tris-NTA lipids were mixed to obtain the respective Tris-NTA concentrations. To perform FRET/FRAP experiments, equimolar concentrations of Cy3 and Cy5 labelled His-tagged FtsAs (total 0.5–1 µM) or His-SUMO-Cys were added to a chamber and treated as above. […] FRAP experiments were performed as described before.
Time-lapse videos were first intensity-corrected and contrast-enhanced to avoid bleaching effects and simplify subsequent analysis. To remove contributions of X–Y drift, the videos were processed with the Linear Stack Alignment with SIFT plugin. Proper alignment was checked with the 3TP align plugin (J. A. Parker; Beth Israel Deaconess Medical Center, Boston). Subsequently, regions of interest (ROIs) in the center of the stacks were chosen for colocalization analysis. The Pearson’s correlation coefficient (PCC) was quantified with the Image CorrelationJ 1o plugin. To extract information about the relative ratio of FtsZ/FtsA molecules (slope of linear regression), we also used the Image CorrelationJ 1o plugin. As an output, the plugin provides a scatterplot of FtsZ vs FtsA intensities, to which we fitted a linear slope y=k⋅x+d , where k is the slope and d the offset. The slope was used as an estimate for the ratio of FtsA molecules below FtsZ filaments.

FtsZ [3] = settings: His-tagged FtsA; remark: listed apart in the source
Protocol: as §1, §2
Treadmilling dynamics, were quantified using an automated image analysis protocol previously developed by our group. To visualize colocalization of the co-treadmilling FtsZ & FtsA filaments, we used dual-colour videos obtained at an acquisition rate of one frame per 2 s. The two channels were aligned using FIJI’s 3TP align plugin. Both channels were then subjected to the image subtraction protocol and colocalization was measured as described above.

[4] = 0.60% Tris NTA, Exp. 2 (statistical analysis)
[5] = 0.80% Tris NTA, Exp. 1 (statistical analysis)
[6] = 0.80% Tris NTA, Exp. 2 (statistical analysis)
[7] = 0.80% Tris NTA, Exp. 3 (statistical analysis)
[8] = 1.00% Tris NTA, Exp. 1 (statistical analysis)
[9] = 1.00% Tris NTA, Exp. 2 (statistical analysis)
[10] = 1.00% Tris NTA, Exp. 3 (statistical analysis)
[11] = 2.00% Tris NTA, Exp. 1 (statistical analysis)
[12] = 2.00% Tris NTA, Exp. 2 (statistical analysis)
[13] = 2.00% Tris NTA, Exp. 3 (statistical analysis)
[14] = […] Tris NTA, Exp. 1 (statistical analysis)
[15] = […] Tris NTA, Exp. 3 (statistical analysis)

B1: FtsA R286W (protein)
chain: MIKATDRKLVVGLEIGTAKVAALVGEVLPDGMVNIIGVGSCPSRGMDKGGVNDLESVVKCVQRAIDQAELMADCQISSVYLALSGKHISCQNEIGMVPISEEEVTQEDVENVVHTAKSVRVRDEHRVLHVIPQEYAIDYQEGIKNPVGLSGVRMQAKVHLITCHNDMAKNIVKAVERCGLKVDQLIFAGLASSYSVLTEDERELGVCVVDIGGGTMDIAVYTGGALRHTKVIPYAGNVVTSDIAYAFGTPPSDAEAIKVRHGCALGSIVGKDESVEVPSVGGRPPWSLQRQTLAEVIEPRYTELLNLVNEEILQLQEKLRQQGVKHHLAAGIVLTGGAAQIEGLAACAQRVFHTQVRIGAPLNITGLTDYAQEPYYSTAVGLLHYGKESHLNGEAEVEKRVTASVGSWIKRLNSWLRKEF
modifications: Cy3 or Cy5 at the N-terminus in the labelled form (labelled CLEPTGG peptide conjugated to the 5xGly tag by sortagging); unlabelled protein also used; left off: TwinStrep-SUMO, N-terminal, cleaved | 5x
B1 gave an Off binding rate ([1]; 0.4µM, + FtsN, replicate Exp.5) of 1.01E-01, an Off binding rate ([1]; 0.4µM, + FtsN, replicate Exp.6) of 2.02E-01 and an Off binding rate ([1]; 0.4µM, + FtsZ, Mean, n=8) of 0.1794. For the same molecule, the Off binding rate ([1]; 0.4µM, + FtsZ, replicate Exp.1) was 1.34E-01, the Off binding rate ([1]; 0.4µM, + FtsZ, replicate Exp.2) was 2.29E-01 and the Off binding rate ([1]; 0.4µM, + FtsZ, replicate Exp.3) was 1.49E-01. The Off binding rate ([1]; 0.4µM, + FtsZ, replicate Exp.4) was 2.39E-01, the Off binding rate ([1]; 0.4µM, + FtsZ, replicate Exp.5) was 1.49E-01 and the Off binding rate ([1]; 0.4µM, + FtsZ, replicate Exp.6) was 1.15E-01. The Off binding rate ([1]; 0.4µM, + FtsZ, replicate Exp.7) was 3.30E-01, the Off binding rate ([1]; 0.4µM, + FtsZ, replicate Exp.8) was 8.97E-02 and the “Off binding rate, mean” value ([1]; 0.8 µM FtsA + FtsN&Z) was 0.0945 s. The “Off binding rate, mean” value ([1]; 0.8 µM FtsA + FtsN) was 0.188 s, the “Off binding rate, mean” value ([1]; 0.8 µM FtsA + FtsZ) was 0.161 s and the Off binding rate ([1]; 0.8µM FtsA alone, Mean, n=8) was 0.3865. The “Off binding rate, mean” value ([1]; 0.8 µM FtsA alone) was 0.386 s, the Off binding rate ([1]; 0.8µM FtsA alone, replicate Exp.1) was 6.04E-01 and the Off binding rate ([1]; 0.8µM FtsA alone, replicate Exp.2) was 6.73E-01. It also gave an Off binding rate ([1]; 0.8µM FtsA alone, replicate Exp.3) of 7.27E-01, an Off binding rate ([1]; 0.8µM FtsA alone, replicate Exp.4) of 1.48E-01 and an Off binding rate ([1]; 0.8µM FtsA alone, replicate Exp.5) of 5.66E-01. The Off binding rate ([1]; 0.8µM FtsA alone, replicate Exp.6) was 9.49E-02, the Off binding rate ([1]; 0.8µM FtsA alone, replicate Exp.7) was 1.46E-01 and the Off binding rate ([1]; 0.8µM FtsA alone, replicate Exp.8) was 1.33E-01. For the same molecule, the Off binding rate ([1]; 0.8µM, + FtsN&Z, Mean, n=4) was 0.0945, the Off binding rate ([1]; 0.8µM, + FtsN&Z, replicate Exp.1) was 3.85E-02 and the Off binding rate ([1]; 0.8µM, + FtsN&Z, replicate Exp.2) was 2.22E-01. The Off binding rate ([1]; 0.8µM, + FtsN&Z, replicate Exp.3) was 6.03E-02, the Off binding rate ([1]; 0.8µM, + FtsN&Z, replicate Exp.4) was 5.77E-02 and the Off binding rate ([1]; 0.8µM, + FtsN, Mean, n=3) was 0.1881. It also gave an Off binding rate ([1]; 0.8µM, + FtsN, replicate Exp.1) of 7.35E-02, an Off binding rate ([1]; 0.8µM, + FtsN, replicate Exp.2) of 3.72E-01 and an Off binding rate ([1]; 0.8µM, + FtsN, replicate Exp.3) of 1.19E-01. The Off binding rate ([1]; 0.8µM, + FtsZ, Mean, n=8) was 0.1609, the Off binding rate ([1]; 0.8µM, + FtsZ, replicate Exp.1) was 2.88E-01 and the Off binding rate ([1]; 0.8µM, + FtsZ, replicate Exp.2) was 1.14E-01. For the same molecule, the Off binding rate ([1]; 0.8µM, + FtsZ, replicate Exp.3) was 2.71E-01, the Off binding rate ([1]; 0.8µM, + FtsZ, replicate Exp.4) was 1.12E-01 and the Off binding rate ([1]; 0.8µM, + FtsZ, replicate Exp.5) was 1.44E-01. For the same molecule, the Off binding rate ([1]; 0.8µM, + FtsZ, replicate Exp.6) was 1.39E-01, the Off binding rate ([1]; 0.8µM, + FtsZ, replicate Exp.7) was 1.37E-01 and the Off binding rate ([1]; 0.8µM, + FtsZ, replicate Exp.8) was 8.23E-02. For the same molecule, the Off binding rate ([1]; Fig. S3i/S3j, 0.10 µM FtsA, summary value) was 0.326 s⁻¹, the Off binding rate ([1]; Fig. S3i/S3j, 0.20 µM FtsA, summary value) was 0.251 s⁻¹ and the Off binding rate ([1]; Fig. S3i/S3j, 0.40 µM FtsA, summary value) was 0.374 s⁻¹. For the same molecule, the Off binding rate ([1]; Fig. S3i/S3j, 0.80 µM FtsA, summary value) was 0.386 s⁻¹, the membrane off-rate ([1]; in the presence of FtsZ) was “around 0.20 s^−1” and the PCC (FtsZ [2]; [4]) was 0.65. The “PCC, Mean” value (FtsZ [2]; 0.60% Tris NTA, n = 2 (WT), 3 (R286W), sd 0.07, 0.08, p-value 0.39) was 0.56, the PCC (FtsZ [2]; [5]) was 0.79 and the PCC (FtsZ [2]; [6]) was 0.63. The PCC (FtsZ [2]; [7]) was 0.69, the “PCC, Mean” value (FtsZ [2]; 0.80% Tris NTA, n = 3, 3, sd 0.0141 (WT), 0.0648 (R286W), p-value 0.61) was 0.70 and the PCC (FtsZ [2]; [8]) was 0.78. For the same molecule, the PCC (FtsZ [2]; [9]) was 0.71, the PCC (FtsZ [2]; [10]) was 0.72 and the “PCC, Mean” value (FtsZ [2]; 1.00% Tris NTA, n = 4 (WT), 3 (R286W), sd 0.08, 0.0316, p-value 6.25E-02) was 0.73. The PCC (FtsZ [2]; [11]) was 0.63, the PCC (FtsZ [2]; [12]) was 0.53 and the PCC (FtsZ [2]; [13]) was 0.55. The “PCC, Mean” value (FtsZ [2]; 2.00% Tris NTA, n = 3, 3, sd 0.0143 (WT), 0.04 (R286W), p-value 1.59E-04) was 0.57, the PCC (FtsZ [2]; [14]) was 0.60 and the PCC (FtsZ [2]; […] Tris NTA, Exp. 2 (statistical analysis)) was 0.62. The PCC (FtsZ [2]; [15]) was 0.65, the “PCC, Mean” value (FtsZ [2]; […] Tris NTA, n = 3, 3, sd 0.06 (WT), 0.02 (R286W), p-value 3.86E-04) was 0.63 and the “Differential PCC” value (FtsZ [3]; 0.60% Tris NTA, Exp. 1 (statistical analysis)) was 0.40. The “Differential PCC” value (FtsZ [3]; [4]) was 0.46, the “Differential PCC” value (FtsZ [3]; 0.60% Tris NTA, Exp. 3 (statistical analysis)) was 0.54 and the “Differential PCC, Mean” value (FtsZ [3]; 0.60% Tris NTA, n = 2 (WT), 3 (R286W), sd 0.02, 0.057, p-value 0.67) was 0.47. For the same molecule, the “Differential PCC” value (FtsZ [3]; [5]) was 0.57, the “Differential PCC” value (FtsZ [3]; [6]) was 0.48 and the “Differential PCC” value (FtsZ [3]; [7]) was 0.66. The “Differential PCC, Mean” value (FtsZ [3]; 0.80% Tris NTA, n = 3, 3, sd 0.05 (WT), 0.0749 (R286W), p-value 0.13) was 0.57, the “Differential PCC” value (FtsZ [3]; [8]) was 0.60 and the “Differential PCC” value (FtsZ [3]; [9]) was 0.56. The “Differential PCC” value (FtsZ [3]; [10]) was 0.51, the “Differential PCC, Mean” value (FtsZ [3]; 1.00% Tris NTA, n = 3, 3, sd 0.12 (WT), 0.0377 (R286W), p-value 5.89E-02) was 0.56 and the “Differential PCC” value (FtsZ [3]; [11]) was 0.44. The “Differential PCC” value (FtsZ [3]; [12]) was 0.34, the “Differential PCC” value (FtsZ [3]; [13]) was 0.36 and the “Differential PCC, Mean” value (FtsZ [3]; 2.00% Tris NTA, n = 3, 3, sd 0.0469 (WT), 0.04 (R286W), p-value 2.27E-03) was 0.38. The “Differential PCC” value (FtsZ [3]; [14]) was 0.34, the “Differential PCC” value (FtsZ [3]; [15]) was 0.37 and the “Differential PCC, Mean” value (FtsZ [3]; […] Tris NTA, n = 3, 3, sd 0.0371 (WT), 0.02 (R286W), p-value 5.70E-04) was 0.36.

— paper PMC9098913, “In vitro reconstitution of Escherichia coli divisome activation” (Nature Communications, 2022)
